Laboratory results: patent US20130259873A1

Assays:
[1] = molecular target: high molecular weight melanoma associated antigen (HMW-MAA), also known as CSPG4 (human) (UniProt Q6UVK1); assay: flow cytometry, melanoma cell line 1287 (BRAF V600E), PE-conjugated anti-mouse IgG
[2] = molecular target: high molecular weight melanoma associated antigen (HMW-MAA), also known as CSPG4 (human) (UniProt Q6UVK1); assay: flow cytometry, melanoma cell line M21 (BRAF V600E), PE-conjugated anti-mouse IgG
[3] = molecular target: high molecular weight melanoma associated antigen (HMW-MAA), also known as CSPG4 (human) (UniProt Q6UVK1); assay: flow cytometry, melanoma cell line 1495 (BRAF V600E), PE-conjugated anti-mouse IgG
[4] = molecular target: high molecular weight melanoma associated antigen (HMW-MAA), also known as CSPG4 (human) (UniProt Q6UVK1); assay: flow cytometry, melanoma cell line Mel624 (BRAF V600E), PE-conjugated anti-mouse IgG
[5] = molecular target: high molecular weight melanoma associated antigen (HMW-MAA), also known as CSPG4 (human) (UniProt Q6UVK1); assay: flow cytometry, melanoma cell line SK-MEL-5 (BRAF V600E), PE-conjugated anti-mouse IgG
[6] = molecular target: high molecular weight melanoma associated antigen (HMW-MAA), also known as CSPG4 (human) (UniProt Q6UVK1); assay: flow cytometry, melanoma cell line 677 (BRAF V600E), PE-conjugated anti-mouse IgG
[7] = molecular target: high molecular weight melanoma associated antigen (HMW-MAA), also known as CSPG4 (human) (UniProt Q6UVK1); assay: flow cytometry, melanoma cell line UACC-257 (BRAF V600E), PE-conjugated anti-mouse IgG
[8] = molecular target: high molecular weight melanoma associated antigen (HMW-MAA), also known as CSPG4 (human) (UniProt Q6UVK1); assay: flow cytometry, melanoma cell line SK-MEL-28 (BRAF V600E), PE-conjugated anti-mouse IgG
[9] = molecular target: high molecular weight melanoma associated antigen (HMW-MAA), also known as CSPG4 (human) (UniProt Q6UVK1); assay: flow cytometry, melanoma cell line SK-MEL-19 (BRAF V600E), PE-conjugated anti-mouse IgG
[10] = molecular target: high molecular weight melanoma associated antigen (HMW-MAA), also known as CSPG4 (human) (UniProt Q6UVK1); assay: flow cytometry, melanoma cell line M233 (BRAF V600E), PE-conjugated anti-mouse IgG
[11] = molecular target: high molecular weight melanoma associated antigen (HMW-MAA), also known as CSPG4 (human) (UniProt Q6UVK1); assay: flow cytometry, melanoma cell line SK-MEL-37 (BRAF V600E), PE-conjugated anti-mouse IgG
[12] = molecular target: high molecular weight melanoma associated antigen (HMW-MAA), also known as CSPG4 (human) (UniProt Q6UVK1); assay: flow cytometry, melanoma cell line 836 (BRAF V600E), PE-conjugated anti-mouse IgG
[13] = molecular target: high molecular weight melanoma associated antigen (HMW-MAA), also known as CSPG4 (human) (UniProt Q6UVK1); assay: flow cytometry, melanoma cell line Colo38 (BRAF V600E), PE-conjugated anti-mouse IgG
[14] = molecular target: high molecular weight melanoma associated antigen (HMW-MAA), also known as CSPG4 (human) (UniProt Q6UVK1); assay: flow cytometry, melanoma cell line WM1158 (BRAF V600E), PE-conjugated anti-mouse IgG
[15] = molecular target: high molecular weight melanoma associated antigen (HMW-MAA), also known as CSPG4 (human) (UniProt Q6UVK1); assay: flow cytometry, melanoma cell line 526 (BRAF V600E), PE-conjugated anti-mouse IgG
[16] = molecular target: high molecular weight melanoma associated antigen (HMW-MAA), also known as CSPG4 (human) (UniProt Q6UVK1); assay: flow cytometry, melanoma cell line MV3 (BRAF wild type), PE-conjugated anti-mouse IgG

Sequence of high molecular weight melanoma associated antigen (HMW-MAA), also known as CSPG4 (human) (Q6UVK1 30-2322): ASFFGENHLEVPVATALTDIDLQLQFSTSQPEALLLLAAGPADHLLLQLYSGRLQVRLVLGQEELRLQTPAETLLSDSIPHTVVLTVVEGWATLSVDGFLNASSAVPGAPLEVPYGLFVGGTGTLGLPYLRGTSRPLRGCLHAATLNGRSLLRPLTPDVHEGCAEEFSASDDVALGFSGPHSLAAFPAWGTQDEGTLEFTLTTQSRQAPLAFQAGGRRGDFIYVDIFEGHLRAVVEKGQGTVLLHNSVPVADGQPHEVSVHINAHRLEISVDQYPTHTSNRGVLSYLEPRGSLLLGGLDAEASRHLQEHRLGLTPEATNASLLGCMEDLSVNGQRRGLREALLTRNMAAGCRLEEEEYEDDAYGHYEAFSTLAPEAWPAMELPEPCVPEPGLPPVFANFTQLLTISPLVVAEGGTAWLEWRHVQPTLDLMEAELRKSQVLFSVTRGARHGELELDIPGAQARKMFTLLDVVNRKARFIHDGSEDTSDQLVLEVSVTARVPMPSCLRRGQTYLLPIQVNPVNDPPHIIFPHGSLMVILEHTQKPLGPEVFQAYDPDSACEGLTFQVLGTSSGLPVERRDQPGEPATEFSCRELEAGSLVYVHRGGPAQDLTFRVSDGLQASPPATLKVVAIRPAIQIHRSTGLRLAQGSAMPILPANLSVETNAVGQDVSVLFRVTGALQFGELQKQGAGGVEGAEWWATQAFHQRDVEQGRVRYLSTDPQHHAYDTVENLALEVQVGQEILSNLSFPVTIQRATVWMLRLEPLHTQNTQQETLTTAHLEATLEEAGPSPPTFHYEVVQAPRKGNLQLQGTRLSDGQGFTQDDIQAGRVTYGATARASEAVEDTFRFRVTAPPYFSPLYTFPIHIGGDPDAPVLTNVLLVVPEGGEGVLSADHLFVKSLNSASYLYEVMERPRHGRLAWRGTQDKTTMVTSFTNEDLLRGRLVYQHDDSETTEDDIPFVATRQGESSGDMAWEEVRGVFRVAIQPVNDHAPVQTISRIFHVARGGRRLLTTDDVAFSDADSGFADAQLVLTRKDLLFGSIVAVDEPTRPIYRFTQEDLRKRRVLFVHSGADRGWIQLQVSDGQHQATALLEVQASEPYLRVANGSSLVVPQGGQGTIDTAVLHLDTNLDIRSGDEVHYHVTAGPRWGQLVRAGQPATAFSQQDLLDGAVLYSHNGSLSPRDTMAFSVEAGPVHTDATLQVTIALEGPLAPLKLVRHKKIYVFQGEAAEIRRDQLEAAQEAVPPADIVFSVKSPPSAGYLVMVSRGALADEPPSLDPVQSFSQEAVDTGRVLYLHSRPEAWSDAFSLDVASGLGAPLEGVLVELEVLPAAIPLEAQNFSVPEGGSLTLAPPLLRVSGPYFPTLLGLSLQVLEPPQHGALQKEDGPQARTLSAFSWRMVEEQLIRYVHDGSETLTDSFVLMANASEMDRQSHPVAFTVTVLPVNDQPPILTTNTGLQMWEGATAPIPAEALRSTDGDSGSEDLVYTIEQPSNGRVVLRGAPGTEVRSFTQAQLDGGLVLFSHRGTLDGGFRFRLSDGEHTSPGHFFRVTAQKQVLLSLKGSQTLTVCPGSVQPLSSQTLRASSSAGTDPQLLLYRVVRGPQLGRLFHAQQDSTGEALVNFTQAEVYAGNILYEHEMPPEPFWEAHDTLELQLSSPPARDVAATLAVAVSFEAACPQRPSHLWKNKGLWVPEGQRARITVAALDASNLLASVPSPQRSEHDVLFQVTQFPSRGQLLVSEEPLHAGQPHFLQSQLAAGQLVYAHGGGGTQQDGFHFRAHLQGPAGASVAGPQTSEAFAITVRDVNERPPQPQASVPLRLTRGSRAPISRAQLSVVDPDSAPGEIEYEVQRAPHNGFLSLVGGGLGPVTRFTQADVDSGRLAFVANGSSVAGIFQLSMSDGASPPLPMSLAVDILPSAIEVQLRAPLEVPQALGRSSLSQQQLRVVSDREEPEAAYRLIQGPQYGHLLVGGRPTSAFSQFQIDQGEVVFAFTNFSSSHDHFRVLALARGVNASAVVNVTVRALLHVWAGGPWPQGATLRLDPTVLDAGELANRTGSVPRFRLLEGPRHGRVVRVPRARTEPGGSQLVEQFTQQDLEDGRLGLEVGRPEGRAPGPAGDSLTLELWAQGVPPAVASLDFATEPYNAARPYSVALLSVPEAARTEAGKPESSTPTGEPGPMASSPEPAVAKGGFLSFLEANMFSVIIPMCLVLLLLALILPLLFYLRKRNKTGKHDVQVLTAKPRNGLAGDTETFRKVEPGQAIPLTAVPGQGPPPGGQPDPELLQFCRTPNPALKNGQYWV

HMW-MAA (CSPG4)-specific mouse mAb 225.28 (antibody)
% of cells that express CSPG4 [1]: 99.9%
MFI [1]: 117
% of cells that express CSPG4 [2]: 99.9%
MFI [2]: 917
% of cells that express CSPG4 [3]: 80%
MFI [3]: 437
% of cells that express CSPG4 [4]: 88.2%
MFI [4]: 130
% of cells that express CSPG4 [5]: 99.6%
MFI [5]: 275
% of cells that express CSPG4 [6]: 93%
MFI [6]: 55.8
% of cells that express CSPG4 [7]: 99.9%
MFI [7]: 890
% of cells that express CSPG4 [8]: 99.8%
MFI [8]: 572
% of cells that express CSPG4 [9]: 99.9%
MFI [9]: 607
% of cells that express CSPG4 [10]: 40.8%
MFI [10]: 274
% of cells that express CSPG4 [11]: 99.9%
MFI [11]: 280
% of cells that express CSPG4 [12]: 99.4%
MFI [12]: 1210
% of cells that express CSPG4 [13]: 99.8%
MFI [13]: 493
% of cells that express CSPG4 [14]: 99.8%
MFI [14]: 586
% of cells that express CSPG4 [15]: 78.4%
MFI [15]: 20.2
% of cells that express CSPG4 [16]: 99.7%
MFI [16]: 581
